Paper PMC3082577

B1: Kv3.1: N220Q/N229Q (protein)
parent chain: MGQGDESERIVINVGGTRHQTYRSTLRTLPGTRLAWLAEPDAHSHFDYDPRADEFFFDRHPGVFAHILNYYRTGKLHCPADVCGPLYEEELAFWGIDETDVEPCCWMTYRQHRDAEEALDSFGGAPLDNSADDADADGPGDSGDGEDELEMTKRLALSDSPDGRPGGFWRRWQPRIWALFEDPYSSRYARYVAFASLFFILVSITTFCLETHERFNPIVNKTEIENVRNGTQVRYYREAETEAFLTYIEGVCVVWFTFEFLMRVVFCPNKVEFIKNSLNIIDFVAILPFYLEVGLSGLSSKAAKDVLGFLRVVRFVRILRIFKLTRHFVGLRVLGHTLRASTNEFLLLIIFLALGVLIFATMIYYAERIGAQPNDPSASEHTHFKNIPIGFWWAVVTMTTLGYGDMYPQTWSGMLVGALCALAGVLTIAMPVPVIVNNFGMYYSLAMAKQKLPKKKKKHIPRPPQLGSPNYCKSVVNSPHHSTQSDTCPLAQEEILEINRADSKLNGEVAKAALANEDCPHIDQALTPDEGLPFTRSGTRERYGPCFLLSTGEYACPPGGGMRKDLCKESPVIAKYMPTEAVRVT
B2: Kv3.1: N220Q (protein)
parent chain: B1 parent chain
B3: Kv3.1: N229Q (protein)
parent chain: B1 parent chain

How the values were obtained:
Conditions in all cases: glycan lost; control: wild type
[1] = Western blot of purified Kv3.1
[2] = train of five +40 mV pulses, whole cell
[3] = whole cell patch clamp, 2 s pulse, +40 mV
[4] = whole cell patch clamp, inactivating current type
[5] = whole cell patch clamp, noninactivating current type
[6] = whole cell patch clamp, current pattern classification
[7] = whole cell patch clamp, inactivating current type, +40 mV
[8] = whole cell patch clamp, noninactivating current type, +40 mV

| Protein | expression_or_secretion [1] | other: peak current remaining after repetitive depolarization [2] | other: channel current remaining after 2 s pulse (inactivation), other: % current remaining [3] | other: channel current deactivation time constant, other: τoff [4] | other: channel current, G-V slope factor, other: dV [4] | other: channel current, voltage of half activation, other: V0.5 [4] | other: channel current deactivation time constant, other: τoff [5] | other: channel current, G-V slope factor, other: dV [5] | other: channel current, voltage of half activation, other: V0.5 [5] | other: share of inactivating whole cell current type, other: % inactivating current type [6] | other: channel current activation time constant, other: τon [7] | other: channel current rise time, other: rise time [7] | other: channel current activation time constant, other: τon [8] | other: channel current rise time, other: rise time [8] |
| --- | --- | --- | --- | --- | --- | --- | --- | --- | --- | --- | --- | --- | --- | --- |
| B1 | no change | decreases | increases, 62.3±3.1 vs 51.0±2.3 | increases, 6.0±0.3 vs 4.1±0.2 | no change, 9.6±0.3 vs 10.5±0.5 | no change, 8.1±0.6 vs 10.1±0.7 | increases, 5.6±0.2 vs 3.6±0.1 | no change, 18.7±0.5 vs 22.6±0.4 | no change, 22.3±0.4 vs 28.1±0.7 | increases, 68% vs 36% | increases, 7.5±0.8 vs 4.0±0.3 | increases, 15.9±1.5 vs 8.6±0.5 | increases, 7.4±1.2 vs 1.6±0.2 | increases, 10.2±1.5 vs 3.5±0.2 |
| B2 | no change | – | increases, 60.2±2.7 vs 51.0±2.3 | no change, 4.7±0.4 vs 4.1±0.2 | no change, 9.9±0.4 vs 10.5±0.5 | no change, 9.2±0.8 vs 10.1±0.7 | no change, 4.0±0.3 vs 3.6±0.1 | no change, 19.8±0.6 vs 22.6±0.4 | no change, 30.7±0.6 vs 28.1±0.7 | increases, 65% vs 36% | no change, 5.3±1.0 vs 4.0±0.3 | increases, 10.6±0.9 vs 8.6±0.5 | no change, 1.4±0.4 vs 1.6±0.2 | no change, 3.2±0.4 vs 3.5±0.2 |
| B3 | no change | – | increases, 64.8±4.1 vs 51.0±2.3 | increases, 5.1±0.2 vs 4.1±0.2 | no change, 10.8±0.7 vs 10.5±0.5 | no change, 13.1±0.8 vs 10.1±0.7 | no change, 3.9±0.2 vs 3.6±0.1 | no change, 24.3±0.6 vs 22.6±0.4 | no change, 27.5±0.5 vs 28.1±0.7 | no change, 29% vs 36% | increases, 6.6±0.9 vs 4.0±0.3 | increases, 12.7±1.6 vs 8.6±0.5 | no change, 1.2±0.1 vs 1.6±0.2 | no change, 3.1±0.1 vs 3.5±0.2 |
